Source: PMC10907249
pIC50: −log10 of the molar value.

Target: HLA-A*02:01 refolded with the photocleavable peptide photoKV9, UV-exposed (A*02/photoKV9)
Experiment: fluorescence polarisation

## US11 peptide S28V_WT (amino acids 17 to 44) (from UniProt P09727 17-44)
  pIC50: 5.42
